In EP4644420A1 (Unicet Biotech. LLC, dated 2025):
“And” between values parts separate entries of the source, which are not always exact repeats. Equal values may be shown once.

Assays:
B7-H3 antigen protein [1] = biological target: B7-H3 antigen protein (UniProt Q5ZPR3); assay: blocking ELISA, coated B7-H3 10 µg/mL; no blocker (m2Y31 0 µg/mL); 8H9 2 µg/mL
B7-H3 antigen protein [2] = biological target: B7-H3 antigen protein (UniProt Q5ZPR3); assay: blocking ELISA, coated B7-H3 10 µg/mL; no blocker (m1B4 0 µg/mL); 8H9 2 µg/mL
B7-H3 antigen protein [3] = biological target: B7-H3 antigen protein (UniProt Q5ZPR3); assay: blocking ELISA, coated B7-H3 10 µg/mL; no blocker (m2Y31 0 µg/mL); hu2Y31 2 µg/mL

B7-H3 antigen protein, sequence (Q5ZPR3 29-461): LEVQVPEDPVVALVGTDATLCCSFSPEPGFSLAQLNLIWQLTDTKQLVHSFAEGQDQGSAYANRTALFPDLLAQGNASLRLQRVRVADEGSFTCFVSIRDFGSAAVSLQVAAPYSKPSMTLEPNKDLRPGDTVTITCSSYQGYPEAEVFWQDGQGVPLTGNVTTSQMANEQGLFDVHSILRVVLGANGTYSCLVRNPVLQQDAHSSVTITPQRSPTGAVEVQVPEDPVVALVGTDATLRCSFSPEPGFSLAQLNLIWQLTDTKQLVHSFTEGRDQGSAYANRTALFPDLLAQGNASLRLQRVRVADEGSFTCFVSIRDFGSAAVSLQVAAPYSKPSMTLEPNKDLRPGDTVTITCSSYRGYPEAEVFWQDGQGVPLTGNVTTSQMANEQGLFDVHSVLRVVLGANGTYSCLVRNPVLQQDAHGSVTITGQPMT

B1: antibody 8H9 (antibody, from another filing, V domains shown)
VH: QVQLQQSGAELVKPGASVKLSCKASGYTFTNYDINWVRQRPEQGLEWIGWIFPGDGSTQYNEKFKGKATLTTDTSSSTAYMQLSRLTSEDSAVYFCARQTTATWFAYWGQGTLVTVSA
VL: DIVMTQSPATLSVTPGDRVSLSCRASQSISDYLHWYQQKSHESPRLLIKYASQSISGIPSRFSGSGSGSDFTLSINSVEPEDVGVYYCQNGHSFPLTFGAGTKLELKR
B7-H3 antigen protein [1]
  OD value (450 nm): 2.36 OD450
B7-H3 antigen protein [2]
  OD value (450 nm): 3.38 OD450 and 3.39 OD450

B2: humanized 2Y31 antibody (antibody, V domains shown)
VH: EVQLVESGGGLVKPGGSLKLSCAASGFAFSRYDMSWVRQSPEKRLEWVATISDDGRHTYDRDSVKGRFTISRDNAKNTLYLQMSSLRSEDTALYYCVRHRAITTARFDYWGQGTTVTVSS
VL: DIVMTQSPSSLSVSLGDTVSITCKASQDIYSNIGWLQQLPGQSFKGLIYHGTNLEDGVPSRFSGSGSGTDYSLTISGLESEDFADYYCLQYVQFPYTFGGGTKLEIKA
B7-H3 antigen protein [3]
  OD value (450 nm): 2.07 OD450 and 2.02 OD450
